Source: the Human Domainome abundance scans (Beltran et al. 2025)
± gives the uncertainty stated by the source.

B1: Arginine-glutamic acid dipeptide repeats protein, residues 502 to 543; numbered along this chain, Q9P2R6 (parent)
chain: LKGYACRHCFTTTSKDWHHGGRENILLCTDCRIHFKKYGELP

Variants of: B1
Experiment: abundance fitness (aPCA) (normalised: wild type 0, dead -1); higher = more abundant; growth selection in yeast, the domain comes from the species named
Details: Homo sapiens

| Variant | abundance fitness |
| --- | --- |
| LKGVACRHCFTTTSKDWHHGGRENILLCTDCRIHFKKYGELP [Y4V] | -0.181 ± 0.039 |
| LKGAACRHCFTTTSKDWHHGGRENILLCTDCRIHFKKYGELP [Y4A] | -0.198 ± 0.039 |
| LKGIACRHCFTTTSKDWHHGGRENILLCTDCRIHFKKYGELP [Y4I] | -0.089 ± 0.22 |
| LKGNACRHCFTTTSKDWHHGGRENILLCTDCRIHFKKYGELP [Y4N] | 0.165 ± 0.073 |
| LKGDACRHCFTTTSKDWHHGGRENILLCTDCRIHFKKYGELP [Y4D] | -0.037 ± 0.048 |
| LKGRACRHCFTTTSKDWHHGGRENILLCTDCRIHFKKYGELP [Y4R] | -0.155 ± 0.036 |
| LKGQACRHCFTTTSKDWHHGGRENILLCTDCRIHFKKYGELP [Y4Q] | -0.273 ± 0.044 |
| LKGGACRHCFTTTSKDWHHGGRENILLCTDCRIHFKKYGELP [Y4G] | -0.207 ± 0.032 |
| LKGSACRHCFTTTSKDWHHGGRENILLCTDCRIHFKKYGELP [Y4S] | -0.075 ± 0.038 |
| LKGCACRHCFTTTSKDWHHGGRENILLCTDCRIHFKKYGELP [Y4C] | -0.117 ± 0.053 |
| LKGHACRHCFTTTSKDWHHGGRENILLCTDCRIHFKKYGELP [Y4H] | -0.084 ± 0.057 |
| LKGLACRHCFTTTSKDWHHGGRENILLCTDCRIHFKKYGELP [Y4L] | -0.109 ± 0.039 |
| LKGPACRHCFTTTSKDWHHGGRENILLCTDCRIHFKKYGELP [Y4P] | -0.257 ± 0.047 |
| LKGKACRHCFTTTSKDWHHGGRENILLCTDCRIHFKKYGELP [Y4K] | -0.178 ± 0.055 |
| LKGMACRHCFTTTSKDWHHGGRENILLCTDCRIHFKKYGELP [Y4M] | 0.046 ± 0.044 |
| LKGEACRHCFTTTSKDWHHGGRENILLCTDCRIHFKKYGELP [Y4E] | -0.135 ± 0.04 |
| LKGTACRHCFTTTSKDWHHGGRENILLCTDCRIHFKKYGELP [Y4T] | -0.074 ± 0.063 |
| LKGYTCRHCFTTTSKDWHHGGRENILLCTDCRIHFKKYGELP [A5T] | 0.04 ± 0.043 |
| LKGYDCRHCFTTTSKDWHHGGRENILLCTDCRIHFKKYGELP [A5D] | -0.022 ± 0.072 |
| LKGYCCRHCFTTTSKDWHHGGRENILLCTDCRIHFKKYGELP [A5C] | 0.032 ± 0.058 |

| Variant | abundance fitness |
| --- | --- |
| LKGYFCRHCFTTTSKDWHHGGRENILLCTDCRIHFKKYGELP [A5F] | 0.144 ± 0.059 |
| LKGYNCRHCFTTTSKDWHHGGRENILLCTDCRIHFKKYGELP [A5N] | -0.116 ± 0.17 |
| LKGYQCRHCFTTTSKDWHHGGRENILLCTDCRIHFKKYGELP [A5Q] | 0.039 ± 0.04 |
| LKGYKCRHCFTTTSKDWHHGGRENILLCTDCRIHFKKYGELP [A5K] | -0.104 ± 0.055 |
| LKGYGCRHCFTTTSKDWHHGGRENILLCTDCRIHFKKYGELP [A5G] | 0.012 ± 0.035 |
| LKGYMCRHCFTTTSKDWHHGGRENILLCTDCRIHFKKYGELP [A5M] | -0.046 ± 0.058 |
| LKGYHCRHCFTTTSKDWHHGGRENILLCTDCRIHFKKYGELP [A5H] | 0.044 ± 0.059 |
| LKGYSCRHCFTTTSKDWHHGGRENILLCTDCRIHFKKYGELP [A5S] | 0.007 ± 0.041 |
| LKGYWCRHCFTTTSKDWHHGGRENILLCTDCRIHFKKYGELP [A5W] | 0.014 ± 0.037 |
| LKGYPCRHCFTTTSKDWHHGGRENILLCTDCRIHFKKYGELP [A5P] | -0.335 ± 0.053 |
| LKGYYCRHCFTTTSKDWHHGGRENILLCTDCRIHFKKYGELP [A5Y] | -0.136 ± 0.088 |
| LKGYRCRHCFTTTSKDWHHGGRENILLCTDCRIHFKKYGELP [A5R] | 0.012 ± 0.035 |
| LKGYVCRHCFTTTSKDWHHGGRENILLCTDCRIHFKKYGELP [A5V] | -0.039 ± 0.039 |
| LKGYLCRHCFTTTSKDWHHGGRENILLCTDCRIHFKKYGELP [A5L] | -0.018 ± 0.036 |
| LKPYACRHCFTTTSKDWHHGGRENILLCTDCRIHFKKYGELP [G3P] | -0.189 ± 0.036 |
| LKSYACRHCFTTTSKDWHHGGRENILLCTDCRIHFKKYGELP [G3S] | -0.107 ± 0.048 |
| LKMYACRHCFTTTSKDWHHGGRENILLCTDCRIHFKKYGELP [G3M] | -0.111 ± 0.14 |
| LKTYACRHCFTTTSKDWHHGGRENILLCTDCRIHFKKYGELP [G3T] | -0.093 ± 0.045 |
| LKVYACRHCFTTTSKDWHHGGRENILLCTDCRIHFKKYGELP [G3V] | -0.218 ± 0.034 |
| LKKYACRHCFTTTSKDWHHGGRENILLCTDCRIHFKKYGELP [G3K] | -0.146 ± 0.065 |

| Variant | abundance fitness |
| --- | --- |
| LKWYACRHCFTTTSKDWHHGGRENILLCTDCRIHFKKYGELP [G3W] | -0.391 ± 0.051 |
| LKYYACRHCFTTTSKDWHHGGRENILLCTDCRIHFKKYGELP [G3Y] | -0.205 ± 0.28 |
| LKQYACRHCFTTTSKDWHHGGRENILLCTDCRIHFKKYGELP [G3Q] | -0.373 ± 0.067 |
| LKRYACRHCFTTTSKDWHHGGRENILLCTDCRIHFKKYGELP [G3R] | -0.135 ± 0.034 |
| LKLYACRHCFTTTSKDWHHGGRENILLCTDCRIHFKKYGELP [G3L] | -0.205 ± 0.038 |
| LKGYAWRHCFTTTSKDWHHGGRENILLCTDCRIHFKKYGELP [C6W] | -1.28 ± 0.1 |
| LKGYAQRHCFTTTSKDWHHGGRENILLCTDCRIHFKKYGELP [C6Q] | -0.894 ± 0.069 |
| LKGYAKRHCFTTTSKDWHHGGRENILLCTDCRIHFKKYGELP [C6K] | -0.886 ± 0.17 |
| LKGYATRHCFTTTSKDWHHGGRENILLCTDCRIHFKKYGELP [C6T] | -0.902 ± 0.08 |
| LKGYARRHCFTTTSKDWHHGGRENILLCTDCRIHFKKYGELP [C6R] | -0.996 ± 0.052 |
| LKGYAFRHCFTTTSKDWHHGGRENILLCTDCRIHFKKYGELP [C6F] | -1.03 ± 0.12 |
| LKGYAMRHCFTTTSKDWHHGGRENILLCTDCRIHFKKYGELP [C6M] | -1.1 ± 0.08 |
| LKGYAARHCFTTTSKDWHHGGRENILLCTDCRIHFKKYGELP [C6A] | -0.969 ± 0.072 |
| LKGYALRHCFTTTSKDWHHGGRENILLCTDCRIHFKKYGELP [C6L] | -1 ± 0.072 |
| LKGYAVRHCFTTTSKDWHHGGRENILLCTDCRIHFKKYGELP [C6V] | -1.12 ± 0.072 |
| LKGYAHRHCFTTTSKDWHHGGRENILLCTDCRIHFKKYGELP [C6H] | -0.601 ± 0.075 |
| LKGYAYRHCFTTTSKDWHHGGRENILLCTDCRIHFKKYGELP [C6Y] | -1.05 ± 0.13 |
| LKGYAGRHCFTTTSKDWHHGGRENILLCTDCRIHFKKYGELP [C6G] | -0.878 ± 0.048 |
| LKGYASRHCFTTTSKDWHHGGRENILLCTDCRIHFKKYGELP [C6S] | -0.939 ± 0.064 |
| LKGYAERHCFTTTSKDWHHGGRENILLCTDCRIHFKKYGELP [C6E] | -0.702 ± 0.059 |
